Data reported in US20230220589A1.
Blank lines part the entries; values can stand above or below the binder they belong to.

Columns and labels:
[1] = target: M17-modified Q NTAA target peptides; assay: encoding assay; P2 H;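 note: fraction of recording tags encoded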
[2] = target: M17-modified F NTAA target peptides; assay: encoding assay; P2 H;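 note: fraction of recording tags encoded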
[3] = target: M17-modified G NTAA target peptides; assay: encoding assay; P2 H;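 note: fraction of recording tags encoded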
[4] = target: M17-modified P NTAA target peptides; assay: encoding assay; P2 H;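 note: fraction of recording tags encoded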
[5] = target: M17-modified L NTAA target peptides; assay: encoding assay; P2 H;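 note: fraction of recording tags encoded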
[6] = target: M17-modified E NTAA target peptides; assay: encoding assay; P2 P;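 note: fraction of recording tags encoded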
[7] = target: M17-modified Q NTAA target peptides; assay: encoding assay; P2 P;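 note: fraction of recording tags encoded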
[8] = target: M17-modified F NTAA target peptides; assay: encoding assay; P2 P;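 note: fraction of recording tags encoded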
[9] = target: M17-modified V NTAA target peptides; assay: encoding assay; P2 P;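 note: fraction of recording tags encoded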
[10] = target: M17-modified G NTAA target peptides; assay: encoding assay; P2 P;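 note: fraction of recording tags encoded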
[11] = target: M17-modified P NTAA target peptides; assay: encoding assay; P2 P;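 note: fraction of recording tags encoded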
[12] = target: M17-modified H NTAA target peptides; assay: encoding assay; P2 P;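 note: fraction of recording tags encoded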
[13] = target: M17-modified D NTAA target peptides; assay: encoding assay; P2 P;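 note: fraction of recording tags encoded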
[14] = target: M17-modified M NTAA target peptides; assay: encoding assay; P2 P;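 note: fraction of recording tags encoded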
[15] = target: M17-modified S NTAA target peptides; assay: encoding assay; P2 P;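 note: fraction of recording tags encoded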
[16] = target: M17-modified W NTAA target peptides; assay: encoding assay; P2 P;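 note: fraction of recording tags encoded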
[17] = target: M17-modified I NTAA target peptides; assay: encoding assay; P2 P;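 note: fraction of recording tags encoded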
[18] = target: M17-modified N NTAA target peptides; assay: encoding assay; P2 P;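 note: fraction of recording tags encoded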
[19] = target: M17-modified A NTAA target peptides; assay: encoding assay; P2 P;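 note: fraction of recording tags encoded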
[20] = target: M17-modified L NTAA target peptides; assay: encoding assay; P2 P;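 note: fraction of recording tags encoded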
[21] = target: M17-modified T NTAA target peptides; assay: encoding assay; P2 P;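 note: fraction of recording tags encoded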
[22] = target: M17-modified Y NTAA target peptides (M17-Y-P2-peptide); assay: encoding assay; P2 P;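 note: fraction of recording tags encoded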
[23] = target: M44-modified H NTAA target peptides; assay: encoding assay; P2 A
[24] = target: M44-modified M NTAA target peptides; assay: encoding assay; P2 A
[25] = target: M44-modified L NTAA target peptides (M44-L-P2-peptide); assay: encoding assay; P2 A;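 note: fraction of recording tags encoded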
[26] = target: M44-modified Q NTAA target peptides; assay: encoding assay; P2 A
[27] = target: M44-modified N NTAA target peptides; assay: encoding assay; P2 A
[28] = target: M44-modified I NTAA target peptides (M44-I-P2-peptide); assay: encoding assay; P2 A
[29] = target: M44-modified V NTAA target peptides; assay: encoding assay; P2 A;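 note: fraction of recording tags encoded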
[30] = target: M44-modified W NTAA target peptides; assay: encoding assay; P2 A;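 note: fraction of recording tags encoded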
[31] = target: M44-modified F NTAA target peptides (M44-F-P2-peptide); assay: encoding assay; P2 A;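 note: fraction of recording tags encoded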
[32] = target: M44-modified A NTAA target peptides (M44-A-P2-peptide); assay: encoding assay; P2 A
[33] = target: M44-modified G NTAA target peptides (M44-G-P2-peptide); assay: encoding assay; P2 A;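 note: fraction of recording tags encoded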
[34] = target: M44-modified Y NTAA target peptides (M44-Y-P2-peptide); assay: encoding assay; P2 A;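 note: fraction of recording tags encoded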
[35] = target: M44-modified T NTAA target peptides; assay: encoding assay; P2 P;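 note: fraction of recording tags encoded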
[36] = target: M44-modified V NTAA target peptides; assay: encoding assay; P2 P;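 note: fraction of recording tags encoded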
[37] = target: M44-modified W NTAA target peptides; assay: encoding assay; P2 P;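 note: fraction of recording tags encoded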
[38] = target: M44-modified P NTAA target peptides; assay: encoding assay; P2 P;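 note: fraction of recording tags encoded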
[39] = target: M44-modified G NTAA target peptides (M44-G-P2-peptide); assay: encoding assay; P2 P;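 note: fraction of recording tags encoded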
[40] = target: M44-modified H NTAA target peptides; assay: encoding assay; P2 W
[41] = target: M44-modified M NTAA target peptides; assay: encoding assay; P2 W
[42] = target: M44-modified L NTAA target peptides (M44-L-P2-peptide); assay: encoding assay; P2 W;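 note: fraction of recording tags encoded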
[43] = target: M44-modified D NTAA target peptides; assay: encoding assay; P2 W;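 note: fraction of recording tags encoded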
[44] = target: M44-modified T NTAA target peptides; assay: encoding assay; P2 W
[45] = target: M44-modified Q NTAA target peptides; assay: encoding assay; P2 W
[46] = target: M44-modified N NTAA target peptides; assay: encoding assay; P2 W
[47] = target: M44-modified I NTAA target peptides (M44-I-P2-peptide); assay: encoding assay; P2 W
[48] = target: M44-modified W NTAA target peptides; assay: encoding assay; P2 W;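 note: fraction of recording tags encoded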
[49] = target: M44-modified S NTAA target peptides; assay: encoding assay; P2 W
[50] = target: M44-modified P NTAA target peptides; assay: encoding assay; P2 W;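 note: fraction of recording tags encoded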
[51] = target: M44-modified A NTAA target peptides (M44-A-P2-peptide); assay: encoding assay; P2 W
[52] = target: M44-modified Y NTAA target peptides (M44-Y-P2-peptide); assay: encoding assay; P2 W;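 note: fraction of recording tags encoded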

encoding yield [23]: 0.01 | encoding yield [24]: 0.03 | encoding yield [25]: 0.04 | encoding yield [26]: 0.03 | encoding yield [27]: 0.02 | encoding yield [28]: 0.05 | encoding yield [29]: 0.03 | encoding yield [30]: 0.03 | encoding yield [31]: 0.06 | encoding yield [32]: 0.11 | encoding yield [33]: 0.04 | encoding yield [34]: 0.03 | encoding yield [35]: 0.01 | encoding yield [36]: 0.01 | encoding yield [37]: 0.01 | encoding yield [38]: 0.01 | encoding yield [39]: 0.01 | encoding yield [40]: 0.04 | encoding yield [41]: 0.03 | encoding yield [42]: 0.07 | encoding yield [43]: 0.02 | encoding yield [44]: 0.13 | encoding yield [45]: 0.03 | encoding yield [46]: 0.05 | encoding yield [47]: 0.21 | encoding yield [48]: 0.05 | encoding yield [49]: 0.13 | encoding yield [50]: 0.04 | encoding yield [51]: 0.28 | encoding yield [52]: 0.06
B4: engineered M44-A binder (SEQ ID NO: 42) (designed binder, not shown: small tags and cut ends; large carriers)
chain: QVSVQPNFQQDKFLGRWFVAGLASNSSWDREKVAALSGAKMVVAPATDGGLNVTRTMLRKNQCETYTGLLQPAGSLGSYSWRSPHPGSTGSESVVETDYDQYALVYGQGSKGPGEDLRAAALWSRTQTPRAELKEKFTAFSKAQGFTEDTIVFLPQTDKCMTEQ

encoding yield [23]: 0.01 | encoding yield [24]: 0.06 | encoding yield [25]: 0.19 | encoding yield [26]: 0.01 | encoding yield [27]: 0.01 | encoding yield [28]: 0.29 | encoding yield [29]: 0.01 | encoding yield [30]: 0.01 | encoding yield [31]: 0.07 | encoding yield [32]: 0.01 | encoding yield [33]: 0.01 | encoding yield [34]: 0.01 | encoding yield [40]: 0.01 | encoding yield [41]: 0.01 | encoding yield [42]: 0.03 | encoding yield [43]: 0.01 | encoding yield [44]: 0.01 | encoding yield [45]: 0.01 | encoding yield [46]: 0.01 | encoding yield [47]: 0.14 | encoding yield [48]: 0.03 | encoding yield [49]: 0.02 | encoding yield [50]: 0.01 | encoding yield [51]: 0.01 | encoding yield [52]: 0.02
B5: engineered M44-L binder (SEQ ID NO: 21) (designed binder, not shown: small tags and cut ends; large carriers)
chain: QVSVQPNFQQDKFLGRWFYAGHASNSSWYREKVAALSMAKLVVAPATDGGLNATETFLRKNQCETITSLLQPAGSLGSYSSRSPHGGSTWSTSVVETDYDQYALLYLQGSKGPGEDFRGAILASRTQTPRAELKEKFTAFSKAQGFTEDTIVFLPQTDKCMTEQ

Second part, the binder before the results:

B1: engineered M17-Y binder (SEQ ID NO: 61) (designed binder, not shown: small tags and cut ends; large carriers)
chain: TVPDRSEIAGKWYVVALASNTEFYLREKDWVKSAMARISFLGEDELKVSSAVPSPNGCYKVERTWKKTSDDGEVYNSRAAKLKVEVLDTDYKSYAVIYATRVKDGRTDHQMILYSRSPEVSPAATAIFRKLAGERNYTDEMVAMLPRQEECTVDEV
encoding yield [1]: 0.02 | encoding yield [2]: 0.02 | encoding yield [3]: 0.01 | encoding yield [4]: 0.03 | encoding yield [5]: 0.02 | encoding yield [6]: 0.02 | encoding yield [7]: 0.02 | encoding yield [8]: 0.12 | encoding yield [9]: 0.02 | encoding yield [10]: 0.01 | encoding yield [11]: 0.01 | encoding yield [12]: 0.03 | encoding yield [13]: 0.02 | encoding yield [14]: 0.03 | encoding yield [15]: 0.02 | encoding yield [16]: 0.02 | encoding yield [17]: 0.06 | encoding yield [18]: 0.01 | encoding yield [19]: 0.02 | encoding yield [20]: 0.05 | encoding yield [21]: 0.01 | encoding yield [22]: 0.16

B2: upgraded binder after additional maturation round (SEQ ID NO: 62) (designed binder, not shown: small tags and cut ends; large carriers)
chain: TVPDRSEIAGKWYVVALASNTEFYLRGKDRVKSAMVRISFQGEDELKVSSAVPSPNGCYKVERTWKKTSDDGEVYNSRAAKLKVEVLDTDYKSYAVIYATRVKDRRTDHQMILYSRSPDVSPAATAIFRKLAGERNYTDEMVAMLPRQEECTVDEV
encoding yield [1]: 0.03 | encoding yield [2]: 0.02 | encoding yield [3]: 0.02 | encoding yield [4]: 0.04 | encoding yield [5]: 0.02 | encoding yield [6]: 0.02 | encoding yield [7]: 0.02 | encoding yield [8]: 0.12 | encoding yield [9]: 0.03 | encoding yield [10]: 0.02 | encoding yield [11]: 0.01 | encoding yield [12]: 0.04 | encoding yield [13]: 0.03 | encoding yield [14]: 0.03 | encoding yield [15]: 0.04 | encoding yield [16]: 0.11 | encoding yield [17]: 0.07 | encoding yield [18]: 0.02 | encoding yield [19]: 0.02 | encoding yield [20]: 0.08 | encoding yield [21]: 0.02 | encoding yield [22]: 0.28

B3: engineered M44-L binder (SEQ ID NO: 31) (designed binder, not shown: small tags and cut ends; large carriers)
chain: QDSTQNLIPAPPLISVPLQPGFWTERFQGRWFLVGFAGNAVQKERQSRLTMQSLILELQEDNSYNITAINVRGQGCRYIISTLVPSSRPGQFTLGNIHSYPQIQSLDVQVADTDYDQFAMVFLQGTSENKQYFEVALAGRTKGLSDELKERFVSFAKSLGLKDNNIVFSVPTDQCIDN
encoding yield [23]: 0.01 | encoding yield [24]: 0.05 | encoding yield [25]: 0.14 | encoding yield [26]: 0.02 | encoding yield [27]: 0.02 | encoding yield [28]: 0.07 | encoding yield [29]: 0.02 | encoding yield [30]: 0.08 | encoding yield [31]: 0.11 | encoding yield [32]: 0.02 | encoding yield [33]: 0.03 | encoding yield [34]: 0.04 | encoding yield [35]: 0.01 | encoding yield [36]: 0.02 | encoding yield [37]: 0.04 | encoding yield [38]: 0.01 | encoding yield [39]: 0.01 | encoding yield [40]: 0.04 | encoding yield [41]: 0.05 | encoding yield [42]: 0.17 | encoding yield [43]: 0.04 | encoding yield [44]: 0.03 | encoding yield [45]: 0.03 | encoding yield [46]: 0.04 | encoding yield [47]: 0.25 | encoding yield [48]: 0.17 | encoding yield [49]: 0.07 | encoding yield [50]: 0.02 | encoding yield [51]: 0.05 | encoding yield [52]: 0.11
